According to article PMC7785020, “A unique hormonal recognition feature of the human glucagon-like peptide-2 receptor” (Cell Research, 2020):

Key:
[1] = target: GLP-2R Y252^ECL1A (human) (UniProt O95838); test: radioligand binding; competition on transiently transfected COS-7 cells: unlabeled teduglutide 0.1 nM to 1 μM against 10–15 pM [125I]GLP-2(1–33, M10Y); 4 h, 4 °C; 50 mM HEPES pH 7.4, 1 mM CaCl2, 5 mM MgCl2, 0.5% BSA; three-parameter logistic fit
[2] = target: GLP-2R D244^ECL1A (human) (UniProt O95838); test: as above
[3] = target: Human GLP-2R WT (1–553) (human) (UniProt O95838); test: as above
[4] = target: GLP-2R R242^ECL1A (human) (UniProt O95838); test: as above
[5] = target: GLP-2R R344^5.40A (human) (UniProt O95838); test: as above
[6] = target: GLP-2R ECL1 (poly-alanine) (human) (UniProt O95838); test: radioligand binding; competition on transiently transfected COS-7 cells: unlabeled GLP-2(1–33) 0.1 nM to 1 μM against 10–15 pM [125I]GLP-2(1–33, M10Y); 4 h, 4 °C; 50 mM HEPES pH 7.4, 1 mM CaCl2, 5 mM MgCl2, 0.5% BSA; three-parameter logistic fit
Sequence of GLP-2R ECL1 (poly-alanine) (human) (O95838 whole entry): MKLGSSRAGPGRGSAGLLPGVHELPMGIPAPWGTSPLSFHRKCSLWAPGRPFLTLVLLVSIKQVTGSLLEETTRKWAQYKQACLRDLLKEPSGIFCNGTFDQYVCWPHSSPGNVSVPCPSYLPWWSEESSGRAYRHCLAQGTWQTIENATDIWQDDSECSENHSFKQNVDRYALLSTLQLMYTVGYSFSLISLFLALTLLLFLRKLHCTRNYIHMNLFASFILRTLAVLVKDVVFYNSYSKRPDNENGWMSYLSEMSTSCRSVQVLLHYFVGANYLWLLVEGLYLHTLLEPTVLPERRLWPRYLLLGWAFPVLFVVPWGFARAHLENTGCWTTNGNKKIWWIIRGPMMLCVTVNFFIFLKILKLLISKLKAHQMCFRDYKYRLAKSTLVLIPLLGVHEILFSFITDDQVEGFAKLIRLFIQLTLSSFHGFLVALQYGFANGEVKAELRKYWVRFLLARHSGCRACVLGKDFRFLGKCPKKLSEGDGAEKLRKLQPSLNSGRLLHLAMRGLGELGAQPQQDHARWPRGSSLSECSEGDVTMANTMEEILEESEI

GLP-2R ECL1 (GLP-1R) = GLP-2R ECL1 (GLP-1R) (UniProt O95838); test: as above
Sequence of GLP-2R ECL1 (GLP-1R) (O95838 whole entry): as above

[7] = target: GLP-2R D244^ECL1A (human) (UniProt O95838); test: as above
Target sequence in this assay (O95838 whole entry D244A): as the sequence (O95838 whole entry) above, with D244A counted along it

[8] = target: GLP-2R H268^3.37A (human) (UniProt O95838); test: as above
Sequence of GLP-2R H268^3.37A (human) (O95838 whole entry H268A): as the sequence (O95838 whole entry) above, with H268A counted along it

[9] = target: GLP-2R W249^ECL1A (human) (UniProt O95838); test: as above
[10] = target: GLP-2R R344^5.40A (human) (UniProt O95838); test: as above
GLP-2R (1-490)-LgBiT = target: T1, GLP-2R (1-490)-LgBiT (Homo sapiens, UniProt O95838); test: cAMP accumulation, truncated construct; assay type: cell-based; settings: Table S2, GLP-2R (1-490)-LgBiT; HEK 293T, 30 min, RT; mean ± SEM, n ≥ 3 in duplicate; read-out: cAMP accumulation Emax (% WT)
T1 construct: the C-terminus-truncated GLP-2R(1–490)-LgBiT; HA signal peptide (N); TEV site-OMBP-MBP (C); expressed in transfected cells; host or cells: HEK 293T
T1 sequence (O95838 1-490): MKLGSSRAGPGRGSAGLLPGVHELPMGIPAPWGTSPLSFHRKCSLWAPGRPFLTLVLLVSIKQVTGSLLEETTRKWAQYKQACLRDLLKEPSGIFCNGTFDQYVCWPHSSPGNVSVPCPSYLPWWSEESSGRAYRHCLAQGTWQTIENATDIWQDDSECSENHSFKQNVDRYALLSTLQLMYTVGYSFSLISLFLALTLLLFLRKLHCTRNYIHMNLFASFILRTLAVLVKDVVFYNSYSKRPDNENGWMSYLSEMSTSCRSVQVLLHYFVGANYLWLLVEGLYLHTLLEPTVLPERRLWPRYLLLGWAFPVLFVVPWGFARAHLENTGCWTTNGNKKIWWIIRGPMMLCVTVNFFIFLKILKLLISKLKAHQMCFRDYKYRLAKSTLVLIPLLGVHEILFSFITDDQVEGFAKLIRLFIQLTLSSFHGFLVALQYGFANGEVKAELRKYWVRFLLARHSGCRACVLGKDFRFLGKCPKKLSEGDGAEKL
Experimental: HEK 293T cells were cultured in Dulbecco’s Modified Eagle’s Medium (DMEM) (Gibco, Waltham, USA) supplemented with 10% (v/v) fetal bovine serum (FBS) (Gibco) and 1% (v/v) sodium pyruvate (Gibco) at 37 °C, 5% CO2 in a humidified incubator. They were seeded onto 6-well cell culture plates and transiently transfected with different GLP-2R constructs using Lipofectamine 2000 transfection reagent (Invitrogen, Carlsbad, CA, USA). After 24 h, the transfected cells were seeded onto 384-well microtiter plates (3000 cells per well) in HBSS supplemented with 5 mM HEPES, 0.1% (w/v) bovine serum albumin (BSA) and 0.5 mM 3-isobutyl-1- methylxanthine, and stimulated with increasing concentrations of GLP-2 for 30 min at RT. Eu and Ulight were diluted by cAMP detection buffer and added to the plates separately to terminate the reaction. Plates were incubated at RT for 60 min before measuring the fluorescence intensity at 620 nm and […] by an EnVision multilabel plate reader (PerkinElmer, Boston, USA).

Compound | % Binding of WT [1] | % Binding of WT [2] | % Binding of WT [3] | % Binding of WT [4] | % Binding of WT [5] | % Binding of WT [6] | % Binding of WT (GLP-2R ECL1 (GLP-1R)) | % Binding of WT [7] | % Binding of WT [8] | % Binding of WT [9] | % Binding of WT [10] | Emax (GLP-2R (1-490)-LgBiT)
[^125I]GLP-2(1–33, M10Y) (peptide) | 6.3% | 77.5% | 99.7% | 5.1% | 3.5% | 3% | 3.4% | 69.1% | 2.1% | 2.2% | 5% | 
CC[C@H](C)[C@H](NC(=O)[C@H](Cc1ccccc1)NC(=O)[C@H](CC(=O)O)NC(=O)[C@H](CCCNC(=N)N)NC(=O)[C@H](C)NC(=O)[C@H](C)NC(=O)[C@H](CC(C)C)NC(=O)[C@H](CC(N)=O)NC(=O)[C@H](CC(=O)O)NC(=O)[C@H](CC(C)C)NC(=O)[C@@H](NC(=O)[C@@H](NC(=O)[C@H](CC(N)=O)NC(=O)[C@H](CCSC)NC(=O)[C@H](CCC(=O)O)NC(=O)[C@H](CC(=O)O)NC(=O)[C@H](CO)NC(=O)[C@H](Cc1ccccc1)NC(=O)[C@H](CO)NC(=O)CNC(=O)[C@H](CC(=O)O)NC(=O)[C@H](C)NC(=O)[C@@H](N)Cc1c[nH]cn1)[C@@H](C)O)[C@@H](C)CC)C(=O)N[C@@H](CC(N)=O)C(=O)N[C@@H](Cc1c[nH]c2ccccc12)C(=O)N[C@@H](CC(C)C)C(=O)N[C@H](C(=O)N[C@@H](CCC(N)=O)C(=O)N[C@H](C(=O)N[C@@H](CCCCN)C(=O)N[C@H](C(=O)N[C@H](C(=O)N[C@@H](CC(=O)O)C(=O)O)[C@@H](C)O)[C@@H](C)CC)[C@@H](C)O)[C@@H](C)CC [Human GLP-2 (1–33)] |  |  |  |  |  |  |  |  |  |  |  | 85.3 ± 4%
